Kd and stoichiometry N data for one substance are collected here from article PMC12676389.

The target in assay [1] is β2-adrenergic receptor, construct PN1 (monomeric receptor) (UniProt P07550). Put plainly: BLI; as a16, monomeric β2AR with 10 μM AP. (In general: Biolayer interferometry detects binding as a change in optical thickness at a sensor tip.)
The target in assay [2] is AP-7-168-bound β2AR dimer (construct PN1) (UniProt P07550). The experiment in a line: SEC; AP-bound dimer with nucleotide-free Gs; peak fractions on SDS-PAGE, ratio of β2AR to Gα estimated on gels.
Assay [3] addresses β2-adrenergic receptor, construct PN1 (monomeric receptor) (UniProt P07550). Put plainly: BLI; FLAG-tagged β2AR (monomer or AP-bound dimer) captured with 10 μM Iso on SA tips by biotinylated anti-FLAG M1 Fab; Gs 30 nM to 10 μM with 10 μM GDP and 0.1% BSA in NH buffer, 0.01% LMNG, 0.001% CHS; 30°C; KD from equilibrium responses.

The Kd is the equilibrium constant for the complex coming apart. Read a low Kd as a tighter complex. A word on the stoichiometry N: it is the number of molecules, sites or subunits per partner or assembly. For “heterotrimeric Gs (Gαsβ1γ2) (from UniProt P63092 1-394; P62873 1-340; P59768 1-71) (complex)”, the dissociation constant Kd in assay [1] was 1700 nM; in assay [3], 960 nM. Besides, in assay [2], the stoichiometry N is 2 β2AR per Gα.
